# Source: US20260284189A1, “TREATMENT OF NON-SMALL CELL LUNG CANCER” (ASTRAZENECA AB, priority 2023, published 2026)
# Where “and” joins values, the source holds several entries; their conditions need not be identical. Identical values can stand only once.
# Experiment: AEGEAN phase III: adverse events in the safety analysis set (CTCAE v5.0)
# Details: for COVID-19: number of patients with event / COVID-19: patients with event: grouped term; for Any immune-mediated event: number of patients / Any immune-mediated event: patients: immune-mediated AE
# [1] = all-causality, safety analysis set N = 400
# [2] = any cause, Any Grade, safety analysis set N = 400
# [3] = any cause, Any Grade, safety analysis set N = 400, listed as durvalumab
# [4] = any cause, Max. Grade 3 or 4, safety analysis set N = 400
# [5] = immune-mediated AE (grouped term), Any Grade 3 or 4, safety analysis set N = 400
# [6] = immune-mediated AE (grouped term), Any Grade, safety analysis set N = 400
# [7] = Any Grade 3 or 4, safety analysis set N = 400
# [8] = Any Grade, safety analysis set N = 400
# [9] = overall study period, safety analysis set N = 400
# [10] = overall study period, safety analysis set N = 400, listed as durvalumab
# [11] = possibly related to study treatment, Any Grade, safety analysis set N = 400
# [12] = possibly related to study treatment, Max. Grade 3 or 4, safety analysis set N = 400
# Excerpt: Safety was monitored throughout the study and adverse events (AEs) were graded using the National Cancer Institute Common Toxicity Criteria for AEs version 5.0.
substance,measurement,setting,value
Durvalumab: antibody that selectively binds PD-L1 and blocks binding of PD-L1 to PD-1 and CD80; arm given with platinum-based chemotherapy before surgery,Adverse events leading to cancellation of surgery: number of patients,[1],7
same,Adverse events leading to cancellation of surgery: patients,[1],(1.8) %
same,Adverse events leading to discontinuation of durvalumab/placebo: number of patients,[1],48
same,Adverse events leading to discontinuation of durvalumab/placebo: patients,[1],(12.0) %
same,COVID-19: number of patients with event,[2],44
same,COVID-19: patients with event,[2],(11.0) %
same,Alopecia: number of patients with event,[2],68
same,Alopecia: patients with event,[2],(17.0) %
same,Anemia: number of patients with event,[2],136
same,Anemia: patients with event,[2],(34.0) %
same,Asthenia: number of patients with event,[2],50
same,Asthenia: patients with event,[2],(12.5) %
same,Constipation: number of patients with event,[2],99
same,Constipation: patients with event,[2],(24.8) %
same,Decreased appetite: number of patients with event,[2],73
same,Decreased appetite: patients with event,[2],(18.3) %
same,Diarrhea: number of patients with event,[2],52
same,Diarrhea: patients with event,[2],(13.0) %
same,Fatigue: number of patients with event,[2],52
same,Fatigue: patients with event,[2],(13.0) %
same,Insomnia: number of patients with event,[2],41
same,Insomnia: patients with event,[2],(10.3) %
same,Nausea: number of patients with event,[2],101
same,Nausea: patients with event,[2],(25.3) %
same,Neutropenia: number of patients with event,[2],68
same,Neutropenia: patients with event,[2],(17.0) %
same,Neutrophil count decreased: number of patients with event,[2],64
same,Neutrophil count decreased: patients with event,[2],(16.0) %
same,Procedural pain: number of patients with event,[2],44
same,Procedural pain: patients with event,[2],(11.0) %
same,Pruritis: number of patients with event,[2],47
same,Pruritis: patients with event,[2],(11.8) %
same,Rash: number of patients with event,[2],56
same,Rash: patients with event,[2],(14.0) %
same,Vomiting: number of patients with event,[2],45
same,Vomiting: patients with event,[2],(11.3) %
same,Pruritis: patients with event,[3],11.8%
same,Rash: patients with event,[3],14%
same,COVID-19: number of patients with event,[4],1
same,COVID-19: patients with event,[4],(0.3) %
same,Alopecia: number of patients with event,[4],0
same,Anemia: number of patients with event,[4],26
same,Anemia: patients with event,[4],(6.5) %
same,Asthenia: number of patients with event,[4],0
same,Constipation: number of patients with event,[4],1
same,Constipation: patients with event,[4],(0.3) %
same,Decreased appetite: number of patients with event,[4],1
same,Decreased appetite: patients with event,[4],(0.3) %
same,Diarrhea: number of patients with event,[4],3
same,Diarrhea: patients with event,[4],(0.8) %
same,Fatigue: number of patients with event,[4],0
same,Insomnia: number of patients with event,[4],0
same,Nausea: number of patients with event,[4],1
same,Nausea: patients with event,[4],(0.3) %
same,Neutropenia: number of patients with event,[4],36
same,Neutropenia: patients with event,[4],(9.0) %
same,Neutrophil count decreased: number of patients with event,[4],39
same,Neutrophil count decreased: patients with event,[4],(9.8) %
same,Procedural pain: number of patients with event,[4],1
same,Procedural pain: patients with event,[4],(0.3) %
same,Pruritis: number of patients with event,[4],1
same,Pruritis: patients with event,[4],(0.3) %
same,Rash: number of patients with event,[4],2
same,Rash: patients with event,[4],(0.5) %
same,Vomiting: number of patients with event,[4],3
same,Vomiting: patients with event,[4],(0.8) %
same,COVID-19 events of max. grade 5: number of patients,"any cause, assessed as unrelated to study treatment, safety analysis set, listed as D",5
same,Decreased appetite with an outcome of death (max. grade 5): number of patients,"any cause, safety analysis set, listed as D",1
same,Dermatitis/Rash: number of patients,[5],2
same,Dermatitis/Rash: patients,[5],(0.5) %
same,Diarrhea/Colitis: number of patients,[5],0
same,Hepatic events: number of patients,[5],8
same,Hepatic events: patients,[5],(2.0) %
same,Hyperthyroid events: number of patients,[5],0
same,Hypothyroid events: number of patients,[5],0
same,Pneumonitis: number of patients,[5],5
same,Pneumonitis: patients,[5],(1.2) %
same,Dermatitis/Rash: number of patients,[6],22
same,Dermatitis/Rash: patients,[6],(5.5) %
same,Diarrhea/Colitis: number of patients,[6],3
same,Diarrhea/Colitis: patients,[6],(0.7) %
same,Hepatic events: number of patients,[6],13
same,Hepatic events: patients,[6],(3.2) %
same,Hyperthyroid events: number of patients,[6],7
same,Hyperthyroid events: patients,[6],(1.7) %
same,Hypothyroid events: number of patients,[6],37
same,Hypothyroid events: patients,[6],(9.2) %
same,Pneumonitis: number of patients,[6],15
same,Pneumonitis: patients,[6],(3.7) %
same,Pneumonitis: patients,"immune-mediated AE (grouped term), Any Grade, safety analysis set N = 400, listed as durvalumab",3.7%
same,Any immune-mediated event: number of patients,[7],17
same,Any immune-mediated event: patients,[7],(4.2) %
same,Any immune-mediated event: patients,"Any Grade 3 or 4, safety analysis set N = 400, listed as durvalumab",4.2%
same,Any immune-mediated event: number of patients,[8],95
same,Any immune-mediated event: patients,[8],(23.7) %
same,Any immune-mediated event: patients,"Any Grade, safety analysis set N = 400, listed as durvalumab",23.7% and 23.5%
same,All-causality adverse events with outcome of death: number of patients,[9],23
same,All-causality adverse events with outcome of death: patients,[9],(5.8) %
same,"All-causality adverse events, maximum grade 3 or 4: number of patients",[9],169
same,"All-causality adverse events, maximum grade 3 or 4: patients",[9],(42.3) %
same,All-causality serious adverse events: number of patients,[9],150
same,All-causality serious adverse events: patients,[9],(37.5) %
same,Any-grade adverse events possibly related to durvalumab/placebo/chemotherapy: number of patients,[9],346
same,Any-grade adverse events possibly related to durvalumab/placebo/chemotherapy: patients,[9],(86.5) %
same,Any-grade all-causality adverse events: number of patients,[9],386
same,Any-grade all-causality adverse events: patients,[9],(96.5) %
same,Possibly related adverse events with outcome of death: number of patients,[9],7
same,Possibly related adverse events with outcome of death: patients,[9],(1.8) %
same,"Possibly related adverse events, maximum grade 3 or 4: number of patients",[9],129
same,"Possibly related adverse events, maximum grade 3 or 4: patients",[9],(32.3) %
same,"All-causality adverse events, maximum grade 3 or 4: patients",[10],42.3%
same,Any-grade adverse events possibly related to durvalumab/placebo/chemotherapy: patients,[10],86.5%
same,Any-grade all-causality adverse events: patients,[10],96.5%
same,Possibly related adverse events with outcome of death: patients,[10],1.8%
same,"Possibly related adverse events, maximum grade 3 or 4: patients",[10],32.3%
same,Alanine aminotransferase increased: number of patients with event,[11],30
same,Alanine aminotransferase increased: patients with event,[11],(7.5) %
same,Alopecia: number of patients with event,[11],66
same,Alopecia: patients with event,[11],(16.5) %
same,Anemia: number of patients with event,[11],104
same,Anemia: patients with event,[11],(26.0) %
same,Arthralgia: number of patients with event,[11],21
same,Arthralgia: patients with event,[11],(5.3) %
same,Asthenia: number of patients with event,[11],34
same,Asthenia: patients with event,[11],(8.5) %
same,Constipation: number of patients with event,[11],44
same,Constipation: patients with event,[11],(11.0) %
same,Decreased appetite: number of patients with event,[11],49
same,Decreased appetite: patients with event,[11],(12.3) %
same,Diarrhea: number of patients with event,[11],34
same,Diarrhea: patients with event,[11],(8.5) %
same,Fatigue: number of patients with event,[11],42
same,Fatigue: patients with event,[11],(10.5) %
same,Hypothyroidism: number of patients with event,[11],37
same,Hypothyroidism: patients with event,[11],(9.3) %
same,Leukopenia: number of patients with event,[11],33
same,Leukopenia: patients with event,[11],(8.3) %
same,Nausea: number of patients with event,[11],84
same,Nausea: patients with event,[11],(21.0) %
same,Neutropenia: number of patients with event,[11],60
same,Neutropenia: patients with event,[11],(15.0) %
same,Neutrophil count decreased: number of patients with event,[11],61
same,Neutrophil count decreased: patients with event,[11],(15.3) %
same,Platelet count decreased: number of patients with event,[11],29
same,Platelet count decreased: patients with event,[11],(7.3) %
same,Pruritis: number of patients with event,[11],33
same,Pruritis: patients with event,[11],(8.3) %
same,Rash: number of patients with event,[11],37
same,Rash: patients with event,[11],(9.3) %
same,Thrombocytopenia: number of patients with event,[11],24
same,Thrombocytopenia: patients with event,[11],(6.0) %
same,Vomiting: number of patients with event,[11],31
same,Vomiting: patients with event,[11],(7.8) %
same,White blood cell count decreased: number of patients with event,[11],25
same,White blood cell count decreased: patients with event,[11],(6.3) %
same,Alanine aminotransferase increased: number of patients with event,[12],2
same,Alanine aminotransferase increased: patients with event,[12],(0.5) %
same,Alopecia: number of patients with event,[12],0
same,Anemia: number of patients with event,[12],17
same,Anemia: patients with event,[12],(4.3) %
same,Arthralgia: number of patients with event,[12],1
same,Arthralgia: patients with event,[12],(0.3) %
same,Asthenia: number of patients with event,[12],0
same,Constipation: number of patients with event,[12],0
same,Decreased appetite: number of patients with event,[12],0
same,Diarrhea: number of patients with event,[12],3
same,Diarrhea: patients with event,[12],(0.8) %
same,Fatigue: number of patients with event,[12],0
same,Hypothyroidism: number of patients with event,[12],0
same,Leukopenia: number of patients with event,[12],9
same,Leukopenia: patients with event,[12],(2.3) %
same,Nausea: number of patients with event,[12],1
same,Nausea: patients with event,[12],(0.3) %
same,Neutropenia: number of patients with event,[12],36
same,Neutropenia: patients with event,[12],(9.0) %
same,Neutrophil count decreased: number of patients with event,[12],38
same,Neutrophil count decreased: patients with event,[12],(9.5) %
same,Platelet count decreased: number of patients with event,[12],7
same,Platelet count decreased: patients with event,[12],(1.8) %
same,Pruritis: number of patients with event,[12],1
same,Pruritis: patients with event,[12],(0.3) %
same,Rash: number of patients with event,[12],2
same,Rash: patients with event,[12],(0.5) %
same,Thrombocytopenia: number of patients with event,[12],6
same,Thrombocytopenia: patients with event,[12],(1.5) %
same,Vomiting: number of patients with event,[12],3
same,Vomiting: patients with event,[12],(0.8) %
same,White blood cell count decreased: number of patients with event,[12],8
same,White blood cell count decreased: patients with event,[12],(2.0) %
